In publication PMC9938897, “CvkR is a MerR-type transcriptional repressor of class 2 type V-K CRISPR-associated transposase systems”:
Residue numbers refer to the chain shown, from its start.

B1: P15-5 (dsDNA)
DNA 1: TTGTATAACATAATGTGTTTTGTATGGTATTTT
DNA 2: AAAATACCATACAAAACACATTATGTTATACAA
B2: Pwt (dsDNA)
DNA 1: B1 DNA 1 with A12T
DNA 2: B1 DNA 2 with T22A
B3: P45 (dsDNA)
DNA 1: TAAGAAACATCCTATAGAAGCATCTTCTAAAACACATTAGTGCTTT
DNA 2: AAAGCACTAATGTGTTTTAGAAGATGCTTCTATAGGATGTTTCTTA
B4: Pcas12k (dsDNA)
DNA 1: AAGAAACATCCTATAGAAGCATCTTCTAAAACACATTAGTGCTTTGTATAACATTATGTGTTTTGTATGGTATTTTATTTTTA
DNA 2: TAAAAATAAAATACCATACAAAACACATAATGTTATACAAAGCACTAATGTGTTTTAGAAGATGCTTCTATAGGATGTTTCTT
B5: Pcas12kcenter (dsDNA)
DNA 1: CTAAAACACATTAGTGCTTTGTATAACATTATGTGTTTTGTAT
DNA 2: ATACAAAACACATAATGTTATACAAAGCACTAATGTGTTTTAG
B6: PtnsB (dsDNA)
DNA 1: AAAGGTTTTGTATATTTTCATAATGACAAATTGACTGTCGTTTTCTCCACGTTTAGAATAACATTATGTATTTATAAATT
DNA 2: AATTTATAAATACATAATGTTATTCTAAACGTGGAGAAAACGACAGTCAATTTGTCATTATGAAAATATACAAAACCTTT
B7: P43 (dsDNA)
DNA 1: TGCTTTGTATAACATTATGTGTTTTGTATGGTATTTTATTTTT
DNA 2: AAAAATAAAATACCATACAAAACACATAATGTTATACAAAGCA
B8: PpsbAI (dsDNA)
DNA 1: GGAATAATTAACATTAAGAATTATTAATTCATGGGTTTTTAGTCTAGTAAATTTGCGTGAATTCATGTAAATTTTATGAG
DNA 2: CTCATAAAATTTACATGAATTCACGCAAATTTACTAGACTAAAAACCCATGAATTAATAATTCTTAATGTTAATTATTCC
B9: Ptracr (dsDNA)
DNA 1: TTAGCCCTCTATGCTTATAGTCTCCGCCTAGCTAGGCGAAGTTGACAAACATCTGAACCTTGAAAATATAATATGTAATA
DNA 2: TATTACATATTATATTTTCAAGGTTCAGATGTTTGTCAACTTCGCCTAGCTAGGCGGAGACTATAAGCATAGAGGGCTAA
B10: PtnsBcenter (dsDNA)
DNA 1: TTTAGAATAACATTATGTATTTATAAATTACCTTTGTTTCA
DNA 2: TGAAACAAAGGTAATTTATAAATACATAATGTTATTCTAAA

Each binder was assayed against T1, CvkR (Alr3614) (Anabaena sp. PCC 7120, UniProt A0ACD6B984 19-168) (assay: EMSA; no effect of mutation; EMSA: 10 mM Tris-HCl pH 8.0, 25 mM MgCl2, 50 mM NaCl, 1 mM DTT, 1 mM EDTA, 50 ug/mL poly(dI-dC), 0.01% NP-40, 10% glycerol, 2 nM probe, 25 C 30 min; footprinting: 50 mM Tris-HCl pH 8.0, 100 mM KCl, 2.5 mM MgCl2, 0.2 mM DTT, 10% glycerol, 2 ug salmon sperm DNA, RT). Conditions: protein: recombinant; tags: 6xHis-SUMO removed by Ulp1 (BamHI site; possible vector residues at N-term); chain copies: 2; label: 5'-biotin; blunt.
T1 sequence (A0ACD6B984 entry or part of it): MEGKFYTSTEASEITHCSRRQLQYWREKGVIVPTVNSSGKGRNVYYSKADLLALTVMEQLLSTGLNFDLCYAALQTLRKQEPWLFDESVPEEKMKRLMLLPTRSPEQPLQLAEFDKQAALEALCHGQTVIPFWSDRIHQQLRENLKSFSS
B1: binds.

These binders were tested against CvkR R42E (Anabaena sp. PCC 7120, UniProt A0ACD6B984 19-168, R60E) (assay: EMSA; EMSA: 10 mM Tris-HCl pH 8.0, 25 mM MgCl2, 50 mM NaCl, 1 mM DTT, 1 mM EDTA, 50 ug/mL poly(dI-dC), 0.01% NP-40, 10% glycerol, 2 nM probe, 25 C 30 min; footprinting: 50 mM Tris-HCl pH 8.0, 100 mM KCl, 2.5 mM MgCl2, 0.2 mM DTT, 10% glycerol, 2 ug salmon sperm DNA, RT). Conditions: protein: recombinant; tags: 6xHis-SUMO removed by Ulp1; chain copies: 2; label: 5'-biotin; blunt.
Sequence of CvkR R42E (A0ACD6B984 entry or part of it R60E | R42E R42E): as the sequence (A0ACD6B984 entry or part of it) above, with R42E counted along it
B2: no binding.

Each binder was assayed against T1, CvkR (Alr3614) in the same assay as above. Conditions: protein: recombinant; tags: 6xHis-SUMO removed by Ulp1 (BamHI site; possible vector residues at N-term); chain copies: 2; label: 5'-biotin; blunt.
B3: no binding. B4: binds. B5: binds. B6: binds. B7: binds. B8: no binding. B9: no binding. B10: binds. B2: binds.

What follows are binders tested against CvkRmut (Anabaena sp. PCC 7120, UniProt A0ACD6B984 19-168, R37A;R38A;Q41A;K58A;R60A;N84A) in the same assay as above. Conditions: protein: recombinant; tags: 6xHis-SUMO removed by Ulp1; chain copies: 2; label: 5'-biotin; blunt.
Sequence of CvkRmut (A0ACD6B984 entry or part of it R37A;R38A;Q41A;K58A;R60A;N84A): as the sequence (A0ACD6B984 entry or part of it) above, with R19A, R20A, Q23A, K40A, R42A, N66A counted along it
B2: no binding.
